Measurements as given in patent US20190249188A1 (WHITEHEAD INSTITUTE FOR BIOMEDICAL RESEARCH, published 2019).

Biological target: the molecule itself
Test: X-ray crystallography, BAR/acetyl-CoA and BAR/CoA/phosphinothricin complexes
Method: BAR protein was incubated with 1 mM acetyl-CoA for >2 hour prior to setting crystal trays. Crystals of BAR were obtained after 3 days at 20° C. in hanging drops containing 1 μL of protein solution (7.5 mg/ml) and 1 μL of reservoir solution (0.18 M calcium acetate, 0.1 M Tris-HCl pH 7, 18% (w/v) PEG 3000, 0.2% N-nonyl β-D-glucopyranoside, 1 mM acetyl-CoA). Several crystals were soaked in reservoir solution supplemented with 30 mM L-phosphinothricin for 30-60 min before freezing. Crystals were frozen in reservoir solution supplemented with 15% ethylene glycol. […] Co-crystallization screens and soaking experiments were performed using aminoadipate and tryptophan at final concentrations between 5-30 mM. However, we could not identify electron density supporting the presence of these substrates within the resolved crystal structures.
X-ray diffraction data were collected on the 24-ID-C beam line of the Structural Biology Center at the Advanced Photon Source (Argonne National Laboratory) equipped with a Pixel Array Detector (Pilatus-6MF). […] Initial phases were determined by molecular replacement using Phaser under Phenix (Adams, P. D. et al., Acta Crystallographica. Section D, Biological Crystallo. 66, 213-221, (2010)). […]

B1: Wildtype bialaphos resistance (BAR) protein from Streptomyces hygroscopicus (enzyme)
chain: MSPERRPADIRRATEADMPAVCTIVNHYIETSTVNFRTEPQEPQEWTDDLVRLRERYPWLVAEVDGEVAGIAYAGPWKARNAYDWTAESTVYVSPRHQRTGLGSTLYTHLLKSLEAQGFKSVVAVIGLPNDPSVRMHEALGYAPRGMLRAAGFKHGNWHDVGFWQLDFSLPVPPRPVLPVTEI
notes: the entries describe its self-association into a homodimer in the crystal; Expressed in E. coli from pProEX Hta as 6xHis-BAR; Crystallised with acetyl-CoA, or with CoA and phosphinothricin; also called WT BAR; wild-type BAR
B1: binds.
